Measured values: the supplement of paper PMC9112550, “Optimization of the antimicrobial peptide Bac7 by deep mutational scanning” (BMC Biology, 2022)

Test system: Escherichia coli TOP10
Test: shrunken log2 fold change of peptide-encoding DNA abundance (4.5 h post-induction vs induction); higher = less antimicrobial activity (less host growth inhibition)
Conditions: time post-induction: 4.5 h; library: site-saturation at positions 5, 18, 19, 20
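Further: peptides expressed intracellularly from a pBAD plasmid library in pooled LB shake-flask culture, induced with 0.3% L-arabinose, DNA abundance read by NGS, three biological replicates, DESeq2 with apeglm shrinkage.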

## RRIRTRPPRLPRPRPRPLNSPRP
  shrunken log2 fold change: -0.347

## RRIRTRPPRLPRPRPRPLPFPRP
  shrunken log2 fold change: -0.518

## RRIRTRPPRLPRPRPRPLPKPRP
  shrunken log2 fold change: -0.0549

## RRIRTRPPRLPRPRPRPLQIPRP
  shrunken log2 fold change: 4.62

## RRIRTRPPRLPRPRPRPLQSPRP
  shrunken log2 fold change: -0.00232

## RRIRTRPPRLPRPRPRPLQVPRP
  shrunken log2 fold change: -0.219

## RRIRTRPPRLPRPRPRPLRCPRP
  shrunken log2 fold change: 0.108

## RRIRTRPPRLPRPRPRPLRKPRP
  shrunken log2 fold change: 0.258

## RRIRTRPPRLPRPRPRPLRVPRP
  shrunken log2 fold change: 0.767

## RRIRTRPPRLPRPRPRPLSDPRP
  shrunken log2 fold change: -0.029

## RRIRTRPPRLPRPRPRPLVWPRP
  shrunken log2 fold change: 0.44

## RRIRTRPPRLPRPRPRPLVYPRP
  shrunken log2 fold change: -0.917

## RRIRTRPPRLPRPRPRPLWHPRP
  shrunken log2 fold change: -0.221

## RRIRTRPPRLPRPRPRPLWLPRP
  shrunken log2 fold change: 0.165

## RRIRTRPPRLPRPRPRPLWMPRP
  shrunken log2 fold change: -0.119

## RRIRTRPPRLPRPRPRPLWNPRP
  shrunken log2 fold change: -0.44

## RRIRTRPPRLPRPRPRPLWSPRP
  shrunken log2 fold change: 0.0357

## RRIRTRPPRLPRPRPRPLYKPRP
  shrunken log2 fold change: -0.274

## RRIRTRPPRLPRPRPRPMANPRP
  shrunken log2 fold change: -0.102

## RRIRTRPPRLPRPRPRPMDKPRP
  shrunken log2 fold change: -0.528

## RRIRTRPPRLPRPRPRPMEPPRP
  shrunken log2 fold change: 0.045

## RRIRTRPPRLPRPRPRPMFFPRP
  shrunken log2 fold change: -0.204

## RRIRTRPPRLPRPRPRPMFMPRP
  shrunken log2 fold change: 0.000513

## RRIRTRPPRLPRPRPRPMGDPRP
  shrunken log2 fold change: -0.0264

## RRIRTRPPRLPRPRPRPMGNPRP
  shrunken log2 fold change: -0.0115

## RRIRTRPPRLPRPRPRPMHDPRP
  shrunken log2 fold change: -0.00302

## RRIRTRPPRLPRPRPRPMHEPRP
  shrunken log2 fold change: -0.0192

## RRIRTRPPRLPRPRPRPMILPRP
  shrunken log2 fold change: -0.0648

## RRIRTRPPRLPRPRPRPMIQPRP
  shrunken log2 fold change: -0.146

## RRIRTRPPRLPRPRPRPMKQPRP
  shrunken log2 fold change: -0.0631

## RRIRTRPPRLPRPRPRPMLRPRP
  shrunken log2 fold change: 0.0141

## RRIRTRPPRLPRPRPRPMLYPRP
  shrunken log2 fold change: -0.131

## RRIRTRPPRLPRPRPRPMMPPRP
  shrunken log2 fold change: -0.0027

## RRIRTRPPRLPRPRPRPMMWPRP
  shrunken log2 fold change: 0.00735

## RRIRTRPPRLPRPRPRPMPMPRP
  shrunken log2 fold change: 0.467

## RRIRTRPPRLPRPRPRPMPSPRP
  shrunken log2 fold change: -0.128

## RRIRTRPPRLPRPRPRPMQEPRP
  shrunken log2 fold change: -0.0701

## RRIRTRPPRLPRPRPRPMQMPRP
  shrunken log2 fold change: 0.39

## RRIRTRPPRLPRPRPRPMRHPRP
  shrunken log2 fold change: 0.00372

## RRIRTRPPRLPRPRPRPMTHPRP
  shrunken log2 fold change: -0.633

## RRIRTRPPRLPRPRPRPMVFPRP
  shrunken log2 fold change: 0.0283

## RRIRTRPPRLPRPRPRPMVSPRP
  shrunken log2 fold change: -0.0669

## RRIRTRPPRLPRPRPRPMWHPRP
  shrunken log2 fold change: -0.391

## RRIRTRPPRLPRPRPRPMYDPRP
  shrunken log2 fold change: -0.161

## RRIRTRPPRLPRPRPRPMYFPRP
  shrunken log2 fold change: -0.53

## RRIRTRPPRLPRPRPRPMYHPRP
  shrunken log2 fold change: -0.0615

## RRIRTRPPRLPRPRPRPNAMPRP
  shrunken log2 fold change: 0.0879

## RRIRTRPPRLPRPRPRPNCAPRP
  shrunken log2 fold change: -0.254

## RRIRTRPPRLPRPRPRPNDPPRP
  shrunken log2 fold change: -0.149

## RRIRTRPPRLPRPRPRPNDSPRP
  shrunken log2 fold change: -0.00242

## RRIRTRPPRLPRPRPRPNDTPRP
  shrunken log2 fold change: -0.387

## RRIRTRPPRLPRPRPRPNEAPRP
  shrunken log2 fold change: 0.172

## RRIRTRPPRLPRPRPRPNEFPRP
  shrunken log2 fold change: 0.0177

## RRIRTRPPRLPRPRPRPNFYPRP
  shrunken log2 fold change: -0.186

## RRIRTRPPRLPRPRPRPNGPPRP
  shrunken log2 fold change: -0.277

## RRIRTRPPRLPRPRPRPNHEPRP
  shrunken log2 fold change: -0.143

## RRIRTRPPRLPRPRPRPNIMPRP
  shrunken log2 fold change: -0.526

## RRIRTRPPRLPRPRPRPNIVPRP
  shrunken log2 fold change: -0.192

## RRIRTRPPRLPRPRPRPNLEPRP
  shrunken log2 fold change: -0.0562

## RRIRTRPPRLPRPRPRPNMCPRP
  shrunken log2 fold change: 0.00985

## RRIRTRPPRLPRPRPRPNMGPRP
  shrunken log2 fold change: -0.0939

## RRIRTRPPRLPRPRPRPNMPPRP
  shrunken log2 fold change: -0.0405

## RRIRTRPPRLPRPRPRPNNPPRP
  shrunken log2 fold change: -0.684

## RRIRTRPPRLPRPRPRPNQRPRP
  shrunken log2 fold change: 0.181

## RRIRTRPPRLPRPRPRPNQWPRP
  shrunken log2 fold change: -0.0389

## RRIRTRPPRLPRPRPRPNSQPRP
  shrunken log2 fold change: -0.00223

## RRIRTRPPRLPRPRPRPNTIPRP
  shrunken log2 fold change: -0.596

## RRIRTRPPRLPRPRPRPNVAPRP
  shrunken log2 fold change: 0.174

## RRIRTRPPRLPRPRPRPNYIPRP
  shrunken log2 fold change: -0.74

## RRIRTRPPRLPRPRPRPPAMPRP
  shrunken log2 fold change: 0.294

## RRIRTRPPRLPRPRPRPPDFPRP
  shrunken log2 fold change: 0.0547

## RRIRTRPPRLPRPRPRPPEKPRP
  shrunken log2 fold change: 0.0774

## RRIRTRPPRLPRPRPRPPELPRP
  shrunken log2 fold change: 0.194

## RRIRTRPPRLPRPRPRPPGEPRP
  shrunken log2 fold change: 0.318

## RRIRTRPPRLPRPRPRPPKDPRP
  shrunken log2 fold change: -0.187

## RRIRTRPPRLPRPRPRPPMCPRP
  shrunken log2 fold change: 0.0176

## RRIRTRPPRLPRPRPRPPMPPRP
  shrunken log2 fold change: 0.144

## RRIRTRPPRLPRPRPRPPMSPRP
  shrunken log2 fold change: -0.0702

## RRIRTRPPRLPRPRPRPPMVPRP
  shrunken log2 fold change: 0.152

## RRIRTRPPRLPRPRPRPPNKPRP
  shrunken log2 fold change: -0.275

## RRIRTRPPRLPRPRPRPPNNPRP
  shrunken log2 fold change: -0.377

## RRIRTRPPRLPRPRPRPPNVPRP
  shrunken log2 fold change: -0.201

## RRIRTRPPRLPRPRPRPPPHPRP
  shrunken log2 fold change: 0.907

## RRIRTRPPRLPRPRPRPPVDPRP
  shrunken log2 fold change: 0.244

## RRIRTRPPRLPRPRPRPPYFPRP
  shrunken log2 fold change: 0.202

## RRIRTRPPRLPRPRPRPPYWPRP
  shrunken log2 fold change: 0.0831

## RRIRTRPPRLPRPRPRPQDEPRP
  shrunken log2 fold change: -0.152

## RRIRTRPPRLPRPRPRPQDFPRP
  shrunken log2 fold change: -0.29

## RRIRTRPPRLPRPRPRPQFLPRP
  shrunken log2 fold change: -0.352

## RRIRTRPPRLPRPRPRPQGPPRP
  shrunken log2 fold change: 0.0175

## RRIRTRPPRLPRPRPRPQGRPRP
  shrunken log2 fold change: -0.0678

## RRIRTRPPRLPRPRPRPQIHPRP
  shrunken log2 fold change: -0.15

## RRIRTRPPRLPRPRPRPQLIPRP
  shrunken log2 fold change: -0.222

## RRIRTRPPRLPRPRPRPQMRPRP
  shrunken log2 fold change: 0.472

## RRIRTRPPRLPRPRPRPQNAPRP
  shrunken log2 fold change: -0.12

## RRIRTRPPRLPRPRPRPQNEPRP
  shrunken log2 fold change: -0.276

## RRIRTRPPRLPRPRPRPQNWPRP
  shrunken log2 fold change: -0.265

## RRIRTRPPRLPRPRPRPQPIPRP
  shrunken log2 fold change: 0.0337

## RRIRTRPPRLPRPRPRPQQRPRP
  shrunken log2 fold change: -0.0699

## RRIRTRPPRLPRPRPRPQRMPRP
  shrunken log2 fold change: -0.272

## RRIRTRPPRLPRPRPRPQSQPRP
  shrunken log2 fold change: -0.138

## RRIRTRPPRLPRPRPRPQVVPRP
  shrunken log2 fold change: -0.0349

## RRIRTRPPRLPRPRPRPQYLPRP
  shrunken log2 fold change: -0.436

## RRIRTRPPRLPRPRPRPRAFPRP
  shrunken log2 fold change: 0.184

## RRIRTRPPRLPRPRPRPRAKPRP
  shrunken log2 fold change: 0.346

## RRIRTRPPRLPRPRPRPRCTPRP
  shrunken log2 fold change: -0.00178

## RRIRTRPPRLPRPRPRPRCWPRP
  shrunken log2 fold change: 0.386

## RRIRTRPPRLPRPRPRPRDMPRP
  shrunken log2 fold change: 0.161

## RRIRTRPPRLPRPRPRPREQPRP
  shrunken log2 fold change: 0.198

## RRIRTRPPRLPRPRPRPRHWPRP
  shrunken log2 fold change: 0.0182

## RRIRTRPPRLPRPRPRPRKKPRP
  shrunken log2 fold change: 0.173

## RRIRTRPPRLPRPRPRPRLDPRP
  shrunken log2 fold change: -0.0828

## RRIRTRPPRLPRPRPRPRLHPRP
  shrunken log2 fold change: 0.0546

## RRIRTRPPRLPRPRPRPRLYPRP
  shrunken log2 fold change: 0.0155

## RRIRTRPPRLPRPRPRPRMDPRP
  shrunken log2 fold change: -0.38

## RRIRTRPPRLPRPRPRPRMLPRP
  shrunken log2 fold change: 0.292

## RRIRTRPPRLPRPRPRPRMRPRP
  shrunken log2 fold change: 0.753

## RRIRTRPPRLPRPRPRPRNRPRP
  shrunken log2 fold change: -0.0827

## RRIRTRPPRLPRPRPRPRPPPRP
  shrunken log2 fold change: 0.745

## RRIRTRPPRLPRPRPRPRQRPRP
  shrunken log2 fold change: 0.394

## RRIRTRPPRLPRPRPRPRQTPRP
  shrunken log2 fold change: 0.0617

## RRIRTRPPRLPRPRPRPRRFPRP
  shrunken log2 fold change: -0.115

## RRIRTRPPRLPRPRPRPRSAPRP
  shrunken log2 fold change: 0.0929

## RRIRTRPPRLPRPRPRPRSGPRP
  shrunken log2 fold change: 0.284

## RRIRTRPPRLPRPRPRPRSPPRP
  shrunken log2 fold change: 0.0437

## RRIRTRPPRLPRPRPRPRSWPRP
  shrunken log2 fold change: 0.532

## RRIRTRPPRLPRPRPRPRWFPRP
  shrunken log2 fold change: 0.196

## RRIRTRPPRLPRPRPRPSARPRP
  shrunken log2 fold change: 0.0995

## RRIRTRPPRLPRPRPRPSAVPRP
  shrunken log2 fold change: -0.0697

## RRIRTRPPRLPRPRPRPSDEPRP
  shrunken log2 fold change: -0.516

## RRIRTRPPRLPRPRPRPSECPRP
  shrunken log2 fold change: -0.166

## RRIRTRPPRLPRPRPRPSEDPRP
  shrunken log2 fold change: -0.494

## RRIRTRPPRLPRPRPRPSEFPRP
  shrunken log2 fold change: -0.369

## RRIRTRPPRLPRPRPRPSFRPRP
  shrunken log2 fold change: -1.02

## RRIRTRPPRLPRPRPRPSGIPRP
  shrunken log2 fold change: -0.0172

## RRIRTRPPRLPRPRPRPSIMPRP
  shrunken log2 fold change: -0.827

## RRIRTRPPRLPRPRPRPSKNPRP
  shrunken log2 fold change: -0.325

## RRIRTRPPRLPRPRPRPSLSPRP
  shrunken log2 fold change: 0.00222

## RRIRTRPPRLPRPRPRPSMMPRP
  shrunken log2 fold change: -0.0802

## RRIRTRPPRLPRPRPRPSMPPRP
  shrunken log2 fold change: -0.363

## RRIRTRPPRLPRPRPRPSNHPRP
  shrunken log2 fold change: -0.666

## RRIRTRPPRLPRPRPRPSPNPRP
  shrunken log2 fold change: -0.337

## RRIRTRPPRLPRPRPRPSRGPRP
  shrunken log2 fold change: 0.178

## RRIRTRPPRLPRPRPRPSSQPRP
  shrunken log2 fold change: -0.153

## RRIRTRPPRLPRPRPRPSTDPRP
  shrunken log2 fold change: 0.201

## RRIRTRPPRLPRPRPRPSTMPRP
  shrunken log2 fold change: -0.669

## RRIRTRPPRLPRPRPRPSTQPRP
  shrunken log2 fold change: -0.0187

## RRIRTRPPRLPRPRPRPSVCPRP
  shrunken log2 fold change: -0.203

## RRIRTRPPRLPRPRPRPSVEPRP
  shrunken log2 fold change: 0.0926

## RRIRTRPPRLPRPRPRPSWVPRP
  shrunken log2 fold change: -0.165
